Where a chain is given by its changes, count along the chain named. Numbers in names are those of the source.
B1: GH2-3 IgG (antibody, V domains shown)
VH: EVQLVESGGGLVQPGGSLRLSCAASGFTISGGWIHWVRQAPGKGLEWVAGIWPSGGSTSYADSVKGRFTISADTSKNTAYLQMNSLRAEDTAVYYCARFYFGFGDLMDYWGQGTLVTVSS
VL: DIQMTQSPSSLSASVGDRVTITCRASQDVNNNVAWYQQKPGKAPKLLIYGARYLYSGVPSRFSGSGSGTDFTLTISSLQPEDFATYYCQQFGGGPLTFGQGTKVEIK
notes: source: HEK293-F, transient transfection, purified (Protein A, Superdex 200)
B2: GH2-16 IgG (antibody, V domains shown)
VH: EVQLVESGGGLVQPGGSLRLSCAASGFTINNWGIHWVRQAPGKGLEWVAGIWPFGGYTYYADSVKGRFTISADTSKNTAYLQMNSLRAEDTAVYYCARFDYLNNGGMDYWGQGTLVTVSS
VL: B1 VL with N30Y, N31S, N32S, Y49S, G50Y, A51T, R52S, F91Y, G92Y, L96M
notes: as for B1
B3: GH2-54 IgG (antibody, V domains shown)
VH: EVQLVESGGGLVQPGGSLRLSCAASGFTISDGSIHWVRQAPGKGLEWVAFIGPYWGFTYYADSVKGRFTISADTSKNTAYLQMNSLRAEDTAVYYCARFVNWVHYGMDYWGQGTLVTVSS
VL: B1 VL with N31D, Y49F, A51S, R52S, Y53S, F91G, G92W, G93N, G94Y, L96F
notes: as for B1
B4: M41 IgG (mouse anti-HER2/ECD) (antibody, V domains shown)
VH: EVQLQQSGAELVKPGASVKMSCKAFGYTFTTYPIEWMKQNHGKSLEWIGNFHPYNDYTNYNEKFKGKAKLTVEKSSTTVYLELSRLTSDDSAVYYCARRHDGYYGAMDYWGQGTSVTVSS
VL: DIQMTQTTSSLSASLGDRVTISCRTSQDISNYLNWYQQKPNGTIKLLIYYTSGLYSGVPSRFSGSGSGADYSLTISNVEQEDIATYFCQQVNTLPYTFGGGTKLELK
notes: mouse VL; L49~L53 YYTSG; L91~L96 VNTLPY; mouse VH; H50~H58 NFHPYNDYTN; H96~H100B HDGYYGA; recombinant IgG from a scFv of an immunized mouse's phage library; source: HEK293-F, transient transfection, purified (Protein A, Superdex 200)
B5: M61 IgG (mouse anti-HER2/ECD) (antibody, V domains shown)
VH: B4 VH with Y57D, N59K, T77S, H100N
VL: DIKITQSPASLSASVGETVTITCRASENIYSYLAWYQQKQGKSPQLLVYNAKTLAEGVPSRFSGSGSGTQFSLKINSLQPEDFGSYYCQHHYGTPYTFGGGTKLELK
notes: mouse VL; L49~L53 YNAKT; L91~L96 HYGTPY; mouse VH; H50~H58 NFHPYNDDTK; H96~H100B NDGYYGA; recombinant IgG from a scFv of an immunized mouse's phage library; source: HEK293-F, transient transfection, purified (Protein A, Superdex 200)
B6: M32 IgG (mouse anti-HER2/ECD) (antibody, V domains shown)
VH: EVQLVESGAELVRPGALVKLSCKASGFNIKDYFMYWVKQRPEQGLEWVGWIDPENGNTIYDPKFQGKASITADTSSNTAYLQLSSLTSEDTAVYYCTRGYYGSRVLAMDYWGQGTSVTVSS
VL: GIELTQSQKFMSTSVGDRVSITCKASQNVGTAVAWYQQKPGQSPKLLIYSASNRYTGVPDRFTGSGSGTDFTLTISNMQSEDLADYFCQQYSSYPLAFGGGTKLEIK
notes: mouse VL; L49~L53 YSASN; L91~L96 YSSYPL; mouse VH; H50~H58 WIDPENGNTI; H96~H100B YYGSRVL; recombinant IgG from a scFv of an immunized mouse's phage library; source: HEK293-F, transient transfection, purified (Protein A, Superdex 200)
B7: M62 IgG (mouse anti-HER2/ECD) (antibody, V domains shown)
VH: EVQLQQSGTELARPGASVKLSCKASGYTFIDYYITWVKQRTGQGLEWIGEIYPGGGNPYYNDNFKGKASLTADKSSNTVYMQLSSLTSEDSAVYFCARSYKYDVSVYWGQGTLVTVSA
VL: DIQMIQSQKFMSTSVGDRVSVTCKASQNVGTNVAWYQQKPGQSPKALIHSASYRYSGVPDRFTGSGSGTDFTLTISNVQSEDLAEYFCQQYNSYPLTFGAGTKLEIK
notes: mouse VL; L49~L53 HSASY; L91~L96 YNSYPL; mouse VH; H50~H58 EIYPGGGNPY; H96~H100B YKYDVS; recombinant IgG from a scFv of an immunized mouse's phage library; source: HEK293-F, transient transfection, purified (Protein A, Superdex 200)
B8: GH2-95 IgG (antibody, V domains shown)
VH: EVQLVESGGGLVQPGGSLRLSCAASGFTIDSWGIHWVRQAPGKGLEWVAGIGPFWGYTSYADSVKGRFTISADTSKNTAYLQMNSLRAEDTAVYYCARFGIHFDGIMDYWGQGTLVTVSS
VL: DIQMTQSPSSLSASVGDRVTITCRASQDVSGGVAWYQQKPGKAPKLLIFGSTWLYSGVPLRFSGSGSGTDFTLTISSLQPEDFATYYCQQYYDWPLTFGQGTKVEIK
notes: as for B1
B9: GH2-98 IgG (antibody, V domains shown)
VH: B8 VH with D30N, S31N, W32Y, F54S, Y57F, S59Y, I101F, H102Y, F103N, I106F
VL: B8 VL with S30G, G31S, F49Y, G50F, T52A, W53S, L60S, D93N
notes: as for B1
B10: GH2-36 IgG (antibody, V domains shown)
VH: B8 VH with D30G, S31G, W32G, G50Y, F54Y, W55G, G100H, I101D, F103I, D104G
VL: B1 VL with N31S, K39E, G50F, A51S, R52S, Y53G, F91Y, G92Y, G93N, G94W
notes: as for B1
B11: GH2-42 IgG (antibody, V domains shown)
VH: B8 VH with D30S, S31N, F54Y, W55G, I101F, H102Y
VL: B8 VL with G31S, F49S, S51P, W53G, L60S, E105K, I106R, K107G
notes: as for B1
B12: GH2-104 IgG (antibody, V domains shown)
VH: B8 VH with W55G, I101D, H102Y, F103I, I106V
VL: B8 VL with S30N, G31S, G32N, F49Y, T52P, W53S, L60S
notes: as for B1
B13: GH2-23 IgG (antibody, V domains shown)
VH: EVQLVESGGGLVQPGGSLRLSCAASGFTINGGGIHWVRQAPGKGLEWVAFIGPFGGSTFYADSVKGRFTISADTSKNTAYLQMNSLRAEDTAVYYCARFFGGNIHVMDYWGQGTLVTVSS
VL: DIQMTQSPSSLSASVGDRVTITCRASQDVFWGVAWYQQKPGKAPKLLISWSASLYSGVPSRFSGSGSGTDFTLTISSLQPEDFATYYCQQYFSFPFTFGQGTKVEIK
notes: as for B1
B14: GH2-8 IgG (antibody, V domains shown)
VH: GVQLVESGGGLVQPGGSLRLSCAASGFTIGSSGIHWVRQAPGKGLEWVAGIWPYWGSTYYADSVKGRFTISADTSKNTAYLQMNSLRAEDTAVYYCARFGVGYHYYMDYWGQGTLVTVSS
VL: DIQMTQSPSSLSASVGDRVTITCRASQDVGWWVAWYQQKPGKAPKLLISGATGLYSGVPSRFSGSGSGTDFTLTISSLQPEDFATYYCQQSWDSPITFGQGTKVEIK
notes: as for B1
B15: GH2-13 IgG (antibody, V domains shown)
VH: EVQLVESGGGLVQPGGSLRLSCAASGFTISDGGIHWVRQAPGKGLEWVAGIWPYWGYTSYADSVKGRFTISADTSKNTAYLQMNSLRAEDTAVYYCARFDNNWVGNMDYWGQGTLVTVSS
VL: B13 VL with F30Y, W31F, W50G, S51T, A52T, F92G, F94Y, F96I
notes: as for B1
B16: GH2-59 IgG (antibody, V domains shown)
VH: EVQLVESGGGLVRPGGSLRLSCAASGFTIGDWYIHWVRQAPGKGLEWVAGIGPYWGYTSYADSVKGRFTISADTSKNTAYLQMNSLRAEDTAVYYCARFVGDVWHDMDYWGQGTLVAVSS
VL: B13 VL with F30S, W31G, S51T, A52G, Y91W, F92S, S93D, F96I
notes: as for B1
B17: GH2-102 IgG (antibody, V domains shown)
VH: B8 VH with D30N, S31G, W32G, G50S, F54Y, W55G, E89G, I101H, F103Y, I106H
VL: B1 VL with N30G, N31S, R52P, F91Y, G92Y, G93N, G94W
notes: as for B1
B18: GH2-21 IgG (antibody, V domains shown)
VH: EVQLVESGGGLVQPGGSLRLSCAASGFTINDYSIHWVRQAPGKGLEWVASIWPFGGSTSYADSVKGRFTISADTSKNTAYLQMNSLRAEDTAVYYCARFNYWIGIIMDYWGQGTLVTVSS
VL: B1 VL with N30S, N31D, G50W, R52T, Y53G, F91Y, G92Y, G94F
notes: as for B1
B19: GH2-60 IgG (antibody, V domains shown)
VH: B15 VH with G32F, S59Y, D100W, N102I, W103Y, V104W, G105N, N106V
VL: B14 VL with S7G, W31S, G50S, A51P, T52P, G53S, S91G, W92F
notes: as for B1
B20: GH2-18 IgG (antibody, V domains shown)
VH: B2 VH with N30S, F54Y, Y59F, D100N, N104L
VL: B1 VL with N31S, G50W, A51T, R52T, Y53G, F91Y, G92L, G93S, L96I
notes: as for B1
B21: GH2-14 IgG (antibody, V domains shown)
VH: B2 VH with N31D, W32H, W52G, Y59S, D100N, Y101F, L102N, N103D, N104V
VL: B13 VL with F30G, W31G, W50G, S51P, A52P, S53Y, S93N, F94Y, F96I
notes: as for B1
B22: GH2-96 IgG (antibody, V domains shown)
VH: B8 VH with D30S, S31G, W32Y, S59F, I101H, H102I, F103V, I106L
VL: B8 VL with S30N, F49Y, T52S, L60S, Y92F, L96I
notes: as for B1
B23: GH2-40 IgG (antibody, V domains shown)
VH: B8 VH with D30N, G50W, F54Y, Y57F, G100D, I101G, I106V
VL: B8 VL with S30N, G31N, F49S, S51T, T52P, L60S, Y92F
notes: as for B1
B24: M64 IgG (mouse anti-HER2/ECD) (antibody, V domains shown)
VH: EVQLQQSGAELVKPGASVKLSCTASGFNIKNTYMHWVKQRPEQGLEWIGRIDPANGNTKYDPKLQGKATITADTSSNTAYLHLSSLTSEDTAVYYCVPYYRGAMDYWGQGTSVTVSS
VL: DIQMNQSHKFMSTSVGDRVSITCKASQDVSTAVAWYQQKPGQSPKLLIYWASTRHTGVPGRFTGSGSGADYTLTISSVQAEDLALYYCQQHYSTPYTFGGGTKLEIK
notes: mouse VL; L49~L53 YWAST; L91~L96 HYSTPY; mouse VH; H50~H58 RIDPANGNTK; H96~H100B YRGAM; recombinant IgG from a scFv of an immunized mouse's phage library; source: HEK293-F, transient transfection, purified (Protein A, Superdex 200)

Biological target: T1, extracellular domain (ECD) of human epidermal growth factor receptor 2 (HER2) (Homo sapiens, UniProt P04626)
T1 construct: human epidermal growth factor receptor 2 (HER2), extracellular domain; also called HER2/ECD
Assay: SPR; BIAcore T200; HER2/ECD immobilised on a CM5 chip by amine coupling to 1000 RU; IgG flowed in PBST (0.05% Tween 20) at 30 uL/min; regeneration 10 mM glycine pH 1.5; global fit to a 1:1 binding model
Conditions: both partners purified

Binder | Kd | koff | kon
B1 | 2.07 nM | 0.000502 s⁻¹ | 242000 M⁻¹ s⁻¹
B2 | 1.2 nM | 0.000102 s⁻¹ | 85700 M⁻¹ s⁻¹
B3 | 37.9 nM | 0.0128 s⁻¹ | 339000 M⁻¹ s⁻¹
B4 | 0.0519 nM | 3.48e-05 s⁻¹ | 671000 M⁻¹ s⁻¹
B5 | 0.591 nM | 0.0024 s⁻¹ | 4.06e+06 M⁻¹ s⁻¹
B6 | 0.243 nM | 7.15e-05 s⁻¹ | 294000 M⁻¹ s⁻¹
B7 | 0.0228 nM | 1.8e-05 s⁻¹ | 788000 M⁻¹ s⁻¹
B8 | 4.47 nM | 0.000244 s⁻¹ | 54700 M⁻¹ s⁻¹
B9 | 88.5 nM | 0.0224 s⁻¹ | 254000 M⁻¹ s⁻¹
B10 | 8.85 nM | 7.7 s⁻¹ | 8.68e+08 M⁻¹ s⁻¹
B11 | 0.169 nM | 0.000235 s⁻¹ | 1.39e+06 M⁻¹ s⁻¹
B12 | 1.04 nM | 0.000884 s⁻¹ | 852000 M⁻¹ s⁻¹
B13 | 0.827 nM | 0.00018 s⁻¹ | 217000 M⁻¹ s⁻¹
B14 | 0.259 nM | 0.000155 s⁻¹ | 599000 M⁻¹ s⁻¹
B15 | 2.64 nM | 0.00818 s⁻¹ | 3.1e+06 M⁻¹ s⁻¹
B16 | 6.02 nM | 0.000288 s⁻¹ | 47800 M⁻¹ s⁻¹
B17 | 28.4 nM | 0.039 s⁻¹ | 1.37e+06 M⁻¹ s⁻¹
B18 | 1.4 nM | 0.000623 s⁻¹ | 444000 M⁻¹ s⁻¹
B19 | 1.53 nM | 0.00556 s⁻¹ | 3.64e+06 M⁻¹ s⁻¹
B20 | 0.0695 nM | 1.09e-05 s⁻¹ | 156000 M⁻¹ s⁻¹
B21 | 17 nM | 0.00573 s⁻¹ | 336000 M⁻¹ s⁻¹
B22 | 5.42 nM | 0.00137 s⁻¹ | 254000 M⁻¹ s⁻¹
B23 | 3.04 nM | 0.000217 s⁻¹ | 71200 M⁻¹ s⁻¹
B24 | 0.195 nM | 0.000337 s⁻¹ | 1.74e+06 M⁻¹ s⁻¹

— publication PMC5378893 (Scientific Reports, 2015)
